The stoichiometry N is a count of units in the complex or per binding partner.

Test [1] deals with BTV-15-VP5-Δ43-Nhis, seleno-methionyl-derivatised (Bluetongue virus serotype 15). The test can be described thus: crystal structure; high pH crystal form: 0.09 M sodium formate, 6.6% PGA-LM, 0.1 M Tris (pH 9.0), 20 °C; space group P1, nine subunits in the asymmetric unit; Se-Met protein.
The target of test [2] is BTV-15-VP5-Δ43-Nhis, unlabelled (Bluetongue virus serotype 15). The test can be described thus: crystal structure; low pH crystal form: 1.0 M sodium chloride, 0.1 M Tris (pH 6.0), 20 °C; space group H3; native protein.

In turn, “BTV-15-VP5-Δ43-Nhis, seleno-methionyl-derivatised (domain or fragment)” yielded a stoichiometry N in test [1] of 3.
Turning to “BTV-15-VP5-Δ43-Nhis, unlabelled (domain or fragment)”, the stoichiometry N in test [2] stood at 3.

(Values after article PMC11335306.)
